Measurements as given in article PMC9307154.

Target: Bovine leukemia virus retropepsin (BLV-PR), mature recombinant protease (Bovine leukemia virus)
Assay: enzyme kinetics (initial rate against enzyme concentration); dimer to monomers; BLV-PR 5-200 nM (as monomer) preincubated 15 min at 25°C in reaction buffer (250 mM phosphate pH 5.6, 500 mM NaCl, 10 mM EDTA, 5 mM DTT, 1% glycerol, 1% DMSO), then 1 uM MA-CA fluorogenic substrate, 37°C, rate of the first 3 min, fit of quadratic Eq 1

Bovine leukemia virus retropepsin (BLV-PR), mature recombinant protease (enzyme)
Kd: 160 nM
